Columns and labels:
[1] = target: recombinant Factor VIIa (rFVIIa)
[2] = target: recombinant Factor VIIa (rFVIIa); test: BLI; Octet Red, Ni-NTA biosensors, 37 °C, 1000 rpm; association 180 sec, dissociation 10 min; 1:1 model, global fit; the legend of Figure 4b says rFVIIa was immobilised

recombinant Factor VIIa (rFVIIa), sequence (P08709 whole entry): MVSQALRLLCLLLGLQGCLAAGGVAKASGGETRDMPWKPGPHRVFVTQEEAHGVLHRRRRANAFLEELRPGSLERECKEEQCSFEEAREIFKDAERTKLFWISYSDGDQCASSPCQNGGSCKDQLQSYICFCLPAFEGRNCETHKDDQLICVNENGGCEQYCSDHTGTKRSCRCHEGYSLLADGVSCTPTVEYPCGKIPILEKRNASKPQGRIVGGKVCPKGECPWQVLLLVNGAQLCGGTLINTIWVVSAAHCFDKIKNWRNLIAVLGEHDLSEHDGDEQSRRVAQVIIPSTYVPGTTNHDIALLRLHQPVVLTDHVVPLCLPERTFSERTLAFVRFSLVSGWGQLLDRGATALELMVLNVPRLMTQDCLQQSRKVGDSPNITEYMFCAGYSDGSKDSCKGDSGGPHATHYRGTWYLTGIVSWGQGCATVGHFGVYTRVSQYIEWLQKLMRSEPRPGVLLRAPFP

Q: What does the source list for ALCDDPRVDRWYCQFVEG [E-76 peptide]?
A: prothrombin time (PT) in citrated human plasma, maximal fold prolongation over normal clotting time [1]: 3 fold; Kd [2]: 6.2 nM

— paper PMC5118791
